The target of experiment [1] is hFzd1 CRD-Xtal (hFzd1_Q9UP38_101-230) (human, UniProt Q9UP38 101-230). In words: size-exclusion chromatography of the Fzd CRD_Xtal:Fab mixture. The procedure: (§1) Purfied Fzd CRD_Xtal and Fab binders were mixed at 1.1:1 molar ratio (little excess of the smaller molecular weight protein), and incubated with carboxy-peptidase A and B at a w/w ratio of 100:1 for over-night at 4° C. Complex formation was confirmed by observation of a single-major peak on SuperdexS200 Increase (10/300 GL) column pre-equilibrated in HBS. Fractions containing complexes were further checked by SDS-PAGE, and concentrated to a range from 10 to 55 mg/mL for crystallization screens. Initial crystallization screen, using commercially available MCSG1, MCSG2, MCSG3, MCSG4, PACT (Molecular Dimensions), PEGs I, and PEGs II (Qiagen) screen, and optimization by grid-screens or microseed matrix screen [MMS; Microseed matrix screening for optimization in protein crystallization: what have we learned? D'Arcy, A., Bergfors, T., Cowan-Jacob S. W., and Marshd, M. Acta Cryst. F70, 1117-1126 (2014)]. were performed using Mosquito (TTP LabTech) liquid handler, and equilibrated at 18° C. inside an EchoTherm incubator (Torrey Pines Scientific). 96-well plate crystal screening experiments were periodically monitored manually via a DiscoveryV20 stereomicroscope (Zeiss), and crystals were frozen for data collection by plunging into liquid nitrogen in the presence of various cryo-protectants (typically 15 to 30% v/v of glycerol or ethyleneglycol). X-ray diffraction datasets were collected at the Berkeley Center for Structural Biology at the Advanced Light Source (ALS), Berkeley CA, and processed with XDS [Kabsch, W. XDS. Acta Cryst. D66, 125-132 (2010)], and xdsme [Legrand, P. XDSME: XDS Made Easier (2017) GitHub repository, https://github-.com/legrandp/xdsme DOI 10.5281/zenodo.837885]. programs. Structure of Fzd:Fab complexes were determined by molecular replacement method using Phaser with constant and variable domains of related Fabs are template [Phaser crystallographic software. A. J. McCoy, R. W. Grosse-Kunstleve, P. D. Adams, M. D. Winn, L. C. Storoni, and R. J. Read. J Appl Crystallogr 40, 658-674 (2007)], followed by refinement and validation by MolProbity as implemented in Phenix [PHENIX: a comprehensive Python-based system for macromolecular structure solution.

The target in experiment [2] is T1, Fzd7 cysteine rich domain (CRD), C-terminally biotinylated (human, UniProt O75084 36-165). Kind of experiment: summary in Table 3; method not given there.
Experiment [3] has as its target T2, Fzd1 cysteine rich domain (CRD), C-terminally biotinylated (human, UniProt Q9UP38 101-230). Kind of experiment: summary in Table 3; method not given there.
Experiment [4] has as its target T3, Fzd5 (UniProt Q13467 27-152, limits assumed).
T3 construct: immobilised target antigen of the phage ELISA and the Fzd named in specificity sentences; also called Frizzled 5; Fz5
T3 sequence (looked up): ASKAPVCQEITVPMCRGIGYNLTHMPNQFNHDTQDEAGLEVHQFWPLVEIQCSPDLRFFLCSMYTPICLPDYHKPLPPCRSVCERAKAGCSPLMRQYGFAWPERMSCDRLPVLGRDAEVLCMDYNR
In words: phage ELISA on immobilised antigen. The procedure:
(§2) Detection of bound phage was determined […] by turnover of TMB substrate (Thermo Fisher Scientific, Waltham, MA) at […] by anti-M13-HRP antibody (GE Healthcare, Pittsburgh, PA). Clones were identified as binding to a Fzd receptor when the fold OD 450 nm over background was greater than a threshold level.

Experiment [5] deals with T4, hFzd5 CRD-Xtal (hFzd5_Q13467_27-152) (human, UniProt Q13467 27-152).
T4 construct: complex incubated with carboxypeptidase A and B before crystallisation
T4 sequence: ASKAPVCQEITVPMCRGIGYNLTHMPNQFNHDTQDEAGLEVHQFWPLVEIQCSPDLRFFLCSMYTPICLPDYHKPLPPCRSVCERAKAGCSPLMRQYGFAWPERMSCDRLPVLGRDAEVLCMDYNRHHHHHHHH
Kind of experiment: size-exclusion chromatography of the Fzd CRD_Xtal:Fab mixture. Here is the method: as §1

Experiment [6] concerns the target T2, Fzd1 cysteine rich domain (CRD), …. Kind of experiment: BLI; *=Kd <=100 nM. The procedure:
(§3) Binding kinetics of antibody fragments to a variety of Fzd cysteine rich domain (CRD) protein targets (Fzd1, Fzd2, Fzd3, Fzd4, Fzd5, Fzd6, Fzd7, Fzd8, Fzd9 and/or Fzd10 CRDs) was determined by bio-layer interferometry (BLI) using Octet Red 96 (PALL ForteBio, Fremont, CA) instruments at 30° C., 1000 rpm with streptavidin (SA) biosensors. C-terminal biotinylated Fzd CRD recombinant protein was diluted to 20 nM in the running buffer (PBS, 0.05% Tween-20, 0.5% BSA, pH 7.2) and captured to the SA biosensor until coupling length reached 0.2 nm. Following capture of the Fzd CRD, the SA biosensor with captured biotinylated-Fzd CRD was dipped into wells containing the relevant antibody fragment at […] (0, 1.37, 4.12, 12.4, 37, 111.1, 333.3, 1000 nM) in running buffer, plus a well with only running buffer as a reference channel. […] was determined by global fitting, 1:1 binding model according to manufacturer recommended settings.
One antibody fragment, clone 001S-A04, was selected for alanine-scanning mutagenesis of CDRs, and the respective Fzd1 binding affinities of the various mutants were determined by Octet BLI as described in Example 1.

For experiment [7], the target named is T1, Fzd7 cysteine rich domain (CRD), …. Kind of experiment: BLI; *=Kd <100 nM. The procedure:
as §3
(§4) Table 1B provides clone IDs, the sequence identifier number of the antibody heavy chain fragment and/or light chain fragment, if present, for illustrative clones. In certain embodiments, the Fzd binding domain is an Fab or was derived from an Fab, so the heavy chain of Table 1B includes VH and CH1 sequence, but not CH2 or CH3 sequences. In certain embodiments, the Fzd binding domain is a VHH or sdAb® or was derived from a VHH or sdAb, so Table 1B includes the VHH domain. […] The Kd values were determined by BLI as described above. Blank entries denote that the binding to the specific Fzd receptor has not yet been determined. The entry of "n.b." indicates no binding.

Experiment [8] has as its target T5, Fzd2 cysteine rich domain (CRD), C-terminally biotinylated (human, UniProt Q14332 24-155). In words: BLI; *=Kd <100 nM. Here is the method: as §3, §4
For experiment [9], the target named is T2, Fzd1 cysteine rich domain (CRD), …. Kind of experiment: BLI; *=Kd <100 nM. The procedure:
as §3, §4

Experiment [10] deals with T6, hFzd3 CRD-Xtal (hFzd3_Q9NPG1_23-148) (human, UniProt Q9NPG1 23-148).
T6 construct: complex incubated with carboxypeptidase A and B before crystallisation
T6 sequence: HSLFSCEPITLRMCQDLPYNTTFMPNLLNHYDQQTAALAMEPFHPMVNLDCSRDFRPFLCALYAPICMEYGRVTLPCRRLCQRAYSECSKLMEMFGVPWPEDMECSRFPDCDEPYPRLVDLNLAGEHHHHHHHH
Kind of experiment: size-exclusion chromatography of the Fzd CRD_Xtal:Fab mixture. The procedure:
as §1

Experiment [11] has as its target T7, Frizzled 3 (human, UniProt Q9NPG1 23-148, limits assumed).
T7 construct: Target antigen immobilised on plates in the phage ELISA; also called Fzd3; Fz3
T7 sequence (looked up): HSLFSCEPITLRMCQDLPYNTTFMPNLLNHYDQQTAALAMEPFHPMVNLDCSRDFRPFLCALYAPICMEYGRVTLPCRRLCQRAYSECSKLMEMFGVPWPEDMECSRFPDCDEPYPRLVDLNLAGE
In words: phage ELISA on immobilised antigen (initial binding). Here is the method: as §2

For experiment [12], the target named is T8, Frizzled 6 (human, UniProt O60353 19-145, limits assumed).
T8 construct: the antigen of the phage ELISA is only called 'target antigen'; also called Fzd6; Fz6
T8 sequence (looked up): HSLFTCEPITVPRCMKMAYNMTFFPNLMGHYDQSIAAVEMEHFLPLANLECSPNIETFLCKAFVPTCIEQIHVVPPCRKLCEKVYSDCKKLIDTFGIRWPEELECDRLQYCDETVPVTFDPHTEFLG
Kind of experiment: phage ELISA on immobilized antigen (initial binding). The procedure:
as §2

Experiment [13] has as its target T5, Fzd2 cysteine rich domain (CRD), …. Kind of experiment: BLI; **=Kd 100-2000 nM. The procedure:
as §3, §4

B1: R2M9 (003S-E07) Fab (Fab, V domains shown)
VH: QVQLVQSGAEVKKPGSSVKVSCKASGYTFTNNFMHWVRQAPGQGLEWMGWINPNSGGTKYAQKFQGRVTITADESTSTAYMELSSLRSEDTAVYYCARSVGEVGATMLGIGVWYWFDPWGQGTLVTVSS
VL: not shown
notes: heavy chain with C-terminal hexa-histidine tag; carboxypeptidase A and B treated in the complex
On to B1, for which the binding result in experiment [1] is listed as “binds”.

B2: R2M9 (003S-E07) Fab (Fab, V domains shown)
VH: QVQLVQSGAEVKKPGSSVKVSCKASGYTFTNNFMHWVRQAPGQGLEWMGWINPNSGGTKYAQKFQGRVTITADESTSTAYMELSSLRSEDTAVYYCARSVGEVGATMLGIGVWYWFDPWGQGTLVTVSS
VL: not shown
notes: heavy chain entry ends in GSGSG-His6
On to B2, for which the binding result in experiment [2] and in [3] was “binds” throughout.

B3: 004S-E05 Fab (Fab, V domains shown)
VH: EVQLVESGGGLVQPGGSLRLSCAASGFTFSTYEMNWVRQAPGKGLEWVSGVSWNGSRTHYVDSVKGRFTISRDNSKNTLYLQLNSLRAEDTAVYYCARGQSEKWWSGLYGMDVWGQGTTVTVSS
VL: DIQMTQSPSSLSASVGDRVTITCRASQGISSALAWYQQKPGKAPKLLIYAASALQSGVPSRFSGSGSGTDFTLTISSLQPEDFATYYCQQTYSTPRTFGPGTKVDIKR
notes: Fab chains as crystallised (heavy chain with hexa-histidine tag); also called 004S-E050
For B3, the binding result in experiment [4] and in [5] was “binds” each time.

B4: 001S-A04 (Fab, V domains shown)
VH: EVQLVQSGAEVKKPGASVKVSCKASGYTFTSYGISWVRQAPGQGLEWMGWISAYNGNTNYAQKLQGRVTMTTDTSTSTAYMELRSLRSDDTAVYYCASSKEKATYYYGMDVWGQGTTVTVSS
VL: QAVVLQEPSLSVSPGGTVTLTCGLSSGSVSTNYYPSWYQQTPGQAPRTLIYYTNTRSSDVPERFSGSIVGNKAALTITGAQPDDESVYFCLLYLGRGIWVFGGGTKLTVLG
notes: also called R2M3; WT
Turning to B4, the KD in experiment [6] is at most 100 nM. In addition, the Kd in [7], in experiment [8] and in experiment [9] was below 100 nM throughout.

B5: 029S-E03 Fab (Fab, V domains shown)
VH: QVQLVQSGAEVKKPGASVKVSCKASGYTFTGYYMHWVRQAPGQGLEWMGWINPNSGNTGYAQKFQGRVTMTRDTSTSTVYMELSSLRSEDTAVYYCARSYYGVIDAFDIWGQGTMVTVSS
VL: DIQMTQSPSSLSASVGDRVTITCRASQSISSYLNWYQQKPGKAPKLLIYAASSLQTGVPSRFSGSGSGTDFTLTISSLQPEDFATYYCQQSFRLPLTFGQGTKVEIKR
notes: as for B1
Consider B5, for which the binding result in [10] was “binds”.

B6: 029S-E03 (Fab, V domains shown)
VH: QVQLVQSGAEVKKPGASVKVSCKASGYTFTGYYMHWVRQAPGQGLEWMGWINPNSGNTGYAQKFQGRVTMTRDTSTSTVYMELSSLRSEDTAVYYCARSYYGVIDAFDIWGQGTMVTVSS
VL: DIQMTQSPSSLSASVGDRVTITCRASQSISSYLNWYQQKPGKAPKLLIYAASSLQTGVPSRFSGSGSGTDFTLTISSLQPEDFATYYCQQSFRLPLTFGQGTKVEIKR
As to B6, the binding result in [11] is listed as “binds”.

B7: 004S-E09 (antibody, V domains shown)
VH: QVQLVQSGAEVKKPGASVKVSCKASGDTFSNYVISWVRQAPGQGLEWMGRISAYNGYKSYAQNFQGRVTMTRDTSTSTVYMELSSLRSEDTAVYYCARSSGYVGWFDPWGQGTLVTVSS
VL: not shown
In the case of B7, in [12], the binding result is “binds”.

B8: 4A12 Fab (Fab, V domains shown)
VH: QVQLQQSGPELVKPGASVKLSCKASGYTFTNYDINWVKQRPGQGLEWIGWIYPRDGSTKYNEKFKGKATLTVDTSSSTAYMELHSLTSEDSAVYFCVRSAWGFAYWGQGTLVTVSA
VL: DIVMTQSHKFMSTSVGDRVSITCKASQDVGTAVAWYQQKPGQSPKLLIYWASTRHTGVPDRFTGSGSGTDFTLTINNVQSEDLADYFCQQYSTYPLTFGAGTKLELKR
notes: as for B1
As for B8, the binding result in experiment [5] was “binds”.

B9: 001S-E02 (Fab, V domains shown)
VH: QVQLQESGPGLVKPSETLSLTCTVSGGSISGNNYYWGWIRQPPGKGLEWIGSIYFTGGTYYNPSLKSRVTISVDTSKNQFSLKLSSVTAADTAVYYCARVMLITDAFDIWGQGTMVTVSS
VL: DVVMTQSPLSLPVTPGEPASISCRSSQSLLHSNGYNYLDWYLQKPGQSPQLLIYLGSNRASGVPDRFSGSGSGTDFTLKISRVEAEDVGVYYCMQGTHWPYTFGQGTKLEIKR
For B9, the Kd in experiment [13] is 100 to 2000 nM; in experiment [7], below 100 nM; in experiment [9], below 100 nM.

Values taken from US12006368 (SURROZEN OPERATING, dated 2024).
